From patent publication US20240108651A1 (THOMAS JEFFERSON UNIVERSITY, published 2024) come the findings set out here.

The target of the assay is T1, human desmoglein 2 (Dsg2) on cells (human, UniProt Q14126 50-1118).
T1 construct: whole, on cells; also called huma Dsg2; hDsg2
T1 sequence (looked up): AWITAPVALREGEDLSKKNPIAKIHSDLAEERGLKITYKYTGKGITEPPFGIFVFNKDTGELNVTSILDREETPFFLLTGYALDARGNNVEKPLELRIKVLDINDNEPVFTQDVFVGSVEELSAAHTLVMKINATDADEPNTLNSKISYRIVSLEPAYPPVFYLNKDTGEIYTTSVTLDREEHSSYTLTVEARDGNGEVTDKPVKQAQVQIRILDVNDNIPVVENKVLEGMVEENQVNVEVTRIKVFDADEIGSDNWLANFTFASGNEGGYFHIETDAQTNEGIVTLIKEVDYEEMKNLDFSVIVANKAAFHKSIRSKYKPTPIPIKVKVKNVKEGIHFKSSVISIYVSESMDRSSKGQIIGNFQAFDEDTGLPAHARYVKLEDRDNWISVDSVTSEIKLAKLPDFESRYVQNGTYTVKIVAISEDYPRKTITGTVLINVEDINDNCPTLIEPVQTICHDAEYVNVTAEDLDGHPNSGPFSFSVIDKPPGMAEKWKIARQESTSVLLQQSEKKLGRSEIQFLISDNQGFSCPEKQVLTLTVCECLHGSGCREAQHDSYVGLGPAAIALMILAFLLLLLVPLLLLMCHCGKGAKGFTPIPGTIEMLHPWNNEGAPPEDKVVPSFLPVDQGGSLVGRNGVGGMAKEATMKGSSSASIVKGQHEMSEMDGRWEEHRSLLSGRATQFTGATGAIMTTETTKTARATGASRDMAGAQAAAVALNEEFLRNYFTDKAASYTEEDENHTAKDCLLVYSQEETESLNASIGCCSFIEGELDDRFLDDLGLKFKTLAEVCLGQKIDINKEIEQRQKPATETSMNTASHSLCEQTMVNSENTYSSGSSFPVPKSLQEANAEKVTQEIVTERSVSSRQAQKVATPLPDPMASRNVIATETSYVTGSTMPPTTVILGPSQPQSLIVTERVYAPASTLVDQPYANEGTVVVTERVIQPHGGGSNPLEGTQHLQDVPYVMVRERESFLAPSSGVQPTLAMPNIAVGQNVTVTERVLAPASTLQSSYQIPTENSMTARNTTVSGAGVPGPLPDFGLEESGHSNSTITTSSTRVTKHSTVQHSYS
Put plainly: legend of FIG. 5: Dsg2 domain scheme; immunoblot and immunostaining of A431 SCC cells. From the text: P, Pro-region; EC, Extracellular Domain; TM, Transmembrane; IA, Intracellular Anchoring, ICS, Intracellular Cadherin Segment; LD, Linker Domain; RUD, Repeat Unit Domain; TD, Terminal Domain. 10D2 recognizes EC1 while 6D8 recognizes EC4. For FIG. 5B and FIG. 5C, A431 SCC was immunoblotted (FIG. 5B) or immunostained (FIG. 5C) with mAbs 6D8 and 10D2.
In general terms: Immunoblotting shows a protein as a band on a membrane.

B1: mAb 6D8 (antibody, V domains shown)
VH: QIQLVQSGPELKKPGETVKISCKASGYTFTNYGMNWVKQAPGRGLKWMGWINTYTGNPTYADDFKGRFDFSLETSASTAYLQINNLKNEDMAIYFCARDRGNSFDYWGQGTTLTVSS
VL: DIQMTQSPASLSVSVGETVTITCRASENIYSNLAWYQQKQGKSPQLLVYIAINLADGVPSRFSGSGSGTQYSLKINSLQSEDFGNYYCQHFWGTPRTFGGGTKLEIK
notes: Monoclonal antibody from a hybridoma; also called 6D8 Antibody; 6D8 mAb
On to B1, for which the binding result is recorded as “binds”.

B2: mAb 10D2 (antibody, V domains shown)
VH: EVQLQQSGPELVNPGASVKMSCKASGYSFTSYILHWVKQKPGQGLEWIGYINPYNDATKYNEKFKGKATLTSDKSSSTAYMELSSVTSEDSAVYYCCSMITTAYWAYWGQGTLVTVSA
VL: NIMMTQSPSSLTVSAGEKVTMSCKSSQSILYGSTQKNYLAWYQQKPGQSPKLLIYWASTRESGVPDRFTGSGSGTDFTLTISSVQAEDLAVYYCHQYLSSYTFGGGTKLEIK
notes: Monoclonal antibody from a hybridoma; also called 10D2 Antibody; 10D2 mAb
Turning to B2, the binding result is “binds”.
